From the supplement of paper PMC9732359
± gives the uncertainty stated by the source.

Assay: protein stability index of a GFP-peptide fusion (yeast GPS) (PSI 1-4); higher = more stable; sorted into four equal gates, so the index is relative within each strain
Conditions: san1∆
In short: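 The protein stability index combines read frequencies across sorting gates, each weighted by its gate number and then summed. To obtain those frequencies, a pooled yeast library of GFP fusions to tiled 17-residue yeast protein peptides, on a plasmid also expressing Cherry, was grown to mid-log phase in leucine-free medium. The cells were sorted into four equal gates by GFP/Cherry ratio before plasmid amplification by PCR and Illumina sequencing.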

Sequence | protein stability index
KFPPPTPLLENISISTS [BRR2] | 1.63 ± 0.094
KFTTVLAKILARSIDVE [ECM29] | 2.94 ± 0.14

Same assay, conditions: ubr1∆

Sequence | protein stability index
ILSLIEEAAGTKMFEDR [SMC2] | 3.24 ± 0.066
IMDNFLERTAIELKTDW [RPN1] | 2.56 ± 0.15
IMYQQMLKYRRLFIGDQ [SNF2] | 1.42 ± 0.03
INDKRANLMLVMLRLLL [SRB4] | 1.94 ± 0.04
INGWKFESLPLKSAENS [SWP82] | 3.03 ± 0.058
INKNSKIALREYINNCK [POP4] | 1.73 ± 0.14
INYAFSMDEEFKNMDCI [SIR3] | 3.321 ± 0.031
IPDFRSSEGFYSKIKHL [SIR2] | 2.45 ± 0.079
IPGEYITYALSGYVRSR [RPS21B] | 2.77 ± 0.047
IPKLKPAPINSLSRDFV [SNU114] | 2.75 ± 0.047
IPPTFDKGAVGPNNFIW [MED4] | 3.14 ± 0.11
IPSGNVWNYTFMGTAFN [PRP8] | 2.93 ± 0.068
IPSKNTPDASKPSFSFG [YLR335W/NUP2] | 2.78 ± 0.085
IPVNKRRGAHGSELSSK [SIR3] | 2.96 ± 0.19
IQFLTIGAGVPSLEVAS [FAS1] | 1.11 ± 0.039
IQIFRAHLWQKIHESIV [PRP8] | 2.47 ± 0.074
IQISKLHYTPIEDLWQF [RPC82] | 2.36 ± 0.15
IQLIKILNSHFDALRSL [YJL041W/NSP1] | 2.58 ± 0.035
IQQLHSVLNPFLLRRVK [ISW2] | 2.37 ± 0.041
IQQVVEYADNDEDKFKK [PRP28] | 3.17 ± 0.047
IQSAESIKSQKEEISDQ [SWI3] | 2.85 ± 0.11
IQTKEQVSINSNKILVY [YIL149C/MLP2] | 2.96 ± 0.15
IRARIPFYGSYTETDPA [SRP54] | 2.96 ± 0.076
IRGAVGNSEAIPGLSAG [RTT102] | 3.43 ± 0.053
IRNVIMSASNANDFQLT [SRB8] | 2.19 ± 0.073
IRPLSKPMTAYARADTH [RRP6] | 2.89 ± 0.14

Sequence | protein stability index
IRQAIAKGLVAYHQKYV [RPS16A] | 1.1 ± 0.033
IRRYCDVVAHRQLAGAI [DIS3] | 2.18 ± 0.1
IRTQVNTGGESVVKKED [RGR1] | 3.4 ± 0.088
IRVTNSFALPFEEDEKN [RPN8] | 3.15 ± 0.043
ISDDDDSALRYSILGDR [POP4] | 2.72 ± 0.089
ISIDSWPTTHKYPLGHF [DIS3] | 2.81 ± 0.072
ISIFSTPGSVSLSAYNL [PRP8] | 1.81 ± 0.22
ISKQRTFAVILFLIIQC [YMR129W/POM152] | 1.51 ± 0.058
ISLYLLNLLSQNNTTKF [RPN12] | 1.36 ± 0.039
ISSGLLYLQDSNDKFVH [SRB8] | 1.14 ± 0.07
ISTRERDYLVDTLKLRE [RRP6] | 3.17 ± 0.06
ISVGLYDTTPLLDTNSL [SKI6] | 2.51 ± 0.14
ISVTRQVVLGGTSKYLI [SMC2] | 2.73 ± 0.062
ISYTSHIEGVVILKKNP [RPN1] | 2.52 ± 0.046
ITKDHKVLARQQLQVLA [FAS2] | 1.3 ± 0.047
ITKLHLDKDRKALIQRK [RPL26A] | 1.51 ± 0.091
ITKLLEINLSKIFQTTP [YCS4] | 2.6 ± 0.033
ITQIVEKDFCTSCLQNN [SRB8] | 2.28 ± 0.049
ITSLYALIRRDFTLIPR [CDC53] | 1.41 ± 0.031
ITVVLGVNGYIWLRKTS [RRP4] | 1.95 ± 0.11
ITYTPVRHGRAGATTSR [RPS15] | 2.92 ± 0.099
IVDKYIGESARIIREMF [RPT4] | 2.44 ± 0.079
IVGKSNVLVTMPVAPTM [YMR129W/POM152] | 2.65 ± 0.055
IVGPDLAVLALVIVKKG [RPS6A] | 1.36 ± 0.043
IVPIFQLISAVLVSMGS [YJL039C/NUP192] | 1.22 ± 0.091
IVPLTEGDIQVLKSYGA [RPT1] | 2.99 ± 0.052

Sequence | protein stability index
IVPVISTIENVLFYIGR [COB] | 2.34 ± 0.056
IVQELLDKNLIKLVKQN [RPC34] | 2.57 ± 0.052
IVSFIVNCFHEDTELYQ [YJL039C/NUP192] | 2.46 ± 0.036
IYEKLKNYLKNYILNFK [CDC53] | 1.14 ± 0.061
IYEVDITVHAPLLPIVE [SNU114] | 2.52 ± 0.043
IYKRGQAGVTKASVTIV [SMC2] | 1.16 ± 0.11
IYLLFQSSGKLKEYLDL [YDL116W/NUP84] | 2.6 ± 0.038
IYSPLHSFIKMLQMKGK [SIR2] | 1.88 ± 0.051
KADDDSVTIISAGNDKM [ASC1] | 3.04 ± 0.058
KAEIPPEYAKVGDFLLQ [SIN4] | 1.46 ± 0.061
KAKAQAQAQAQAQAQVY [PGD1] | 3 ± 0.066
KAKFTSLAVRSLQDRSS [YCS4] | 2.24 ± 0.036
KALPMLEQVEFEKNTIL [MED4] | 3.08 ± 0.083
KANIFQVIKNEVCAKMP [SSN2] | 1.84 ± 0.09
KAPKIQRLVTPQRLQRK [RPS6A] | 2.94 ± 0.039
KARTNLHQHVVLKCLKS [RPC34] | 2.23 ± 0.23
KASLLLHVLVAHKLKKS [FAS2] | 1.25 ± 0.038
KATAAKKAVVKGTNGKK [RPL25] | 1.29 ± 0.22
KCFDDIEPHIFDQLIEW [YCG1] | 3.3 ± 0.046
KCIKYSEKLITKYFEPT [ECM29] | 2.68 ± 0.074
KCIPKKGTVFQFEIPIS [POP4] | 1.17 ± 0.052
KCSTRGLSTDHTTQIVN [YML103C/NUP188] | 3.01 ± 0.054
KDDRFVPVRKFKGNNGV [RPN2] | 2.28 ± 0.053
KDEPVQNDILQESFINT [FAS2] | 3.21 ± 0.082
KDERDTWIHSEIEELKS [SMC3] | 3.19 ± 0.12
KDKGVYVVTSDEHPKTL [SIR2] | 2.98 ± 0.079

Sequence | protein stability index
KDNDKNLKFLKNKDSLV [SRB4] | 3.34 ± 0.068
KDNGMLIIDGQIIFGVV [RPO21] | 2.73 ± 0.12
KDNVEHLVMRAISLGLL [RPN9] | 2.76 ± 0.059
KDRISSCSSKEKTLVLE [SMC4] | 2.88 ± 0.098
KDTTGPKAISNFLIKLS [YCS4] | 1.52 ± 0.065
KEDKSEAIDGNGEIKGE [SNF2] | 2.48 ± 0.084
KEIDPSQTTQLAGMDVE [FAS2] | 3.6 ± 0.069
KEKKELQMRLKESEISH [YIL149C/MLP2] | 3.04 ± 0.15
KELELERKEREDFQKRQ [SWI1] | 3.31 ± 0.045
KEQENITIQDLLFPKST [DPB4] | 2.75 ± 0.086
KERISVAAASKILSNLV [PRE2] | 2.71 ± 0.034
KERLTKEAAAVAEGKSK [RPL8A] | 3.1 ± 0.16
KERSDGKRHIFDVNTLC [CDC53] | 1.92 ± 0.085
KESAVISKQKSKLDYIF [SMC1] | 2.98 ± 0.12
KESDDPSIPLVIIRRLK [POP1] | 3.05 ± 0.093
KEYISRLWHTLKYYQDL [SNF5] | 1.58 ± 0.054
KFDIIIVDTSGRHHQEE [SRP54] | 3.17 ± 0.06
KFFHNGMIYNKLFVSKE [FAS2] | 2.58 ± 0.077
KFFRVKYENKISTVIEV [SMC3] | 1.12 ± 0.087
KFHKREVVEAVTVVDTP [RPL3] | 1.45 ± 0.069
KFKRHHSDRYHRVAENW [RPL32] | 3.07 ± 0.045
KFLQEFINLLLNCCGSV [IRR1] | 1.8 ± 0.062
KFPPPTPLLENISISTS [BRR2] | 1.68 ± 0.045
KFTTVLAKILARSIDVE [ECM29] | 3.01 ± 0.22
KGAGLSMGTMICGYTRK [PRE2] | 1.11 ± 0.17
